Experiment: soluble fraction after stress (log2 fold change); higher = more stays soluble; pooled small domains, quantitative proteomics
Settings: stress: 50 degC
Outline: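 The stress applied to every library was 50°C. These custom libraries of small protein domains were pooled and measured at high throughput with quantitative proteomics as the read-out. Aggregation propensity is expressed as the base-two logarithm of the fold change in how much of each protein remains soluble. The higher the value, the more of that protein stays in solution.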

| Sequence | soluble fraction (log2) |
| --- | --- |
| HMLLNLSPIETQVLRLIQQDKKVTYESIGKELTIGQTKVYKVLGHLKELNVIERIGGRTYGHWHILL | -1.03 |
| HMKALDTVLSEIPGLGPVRIKQLLKVFGSVDAIRKASLQDLQQIEGIGPKLAQTIYEYFHQP | ≥ 0.62 |
| HMNNDFIVKSTDSHKVNLRSQPDTHADIIKRLDDHTIVEKLKTVRKNWYLVQLKDTTTQGYVHKSQLERV | -0.0413 |
| HMFYNELMNFIVYKDSQKIGKIVNINDKLPQPVFEVLINDKKFMVPIHDDFIEKIDKEKKSIHIVIPDGLL | 0.0184 |
| HMIMISKSFEINEDNINKRLDIFLTENLDGLSRGIVQKYISLEQITVNKESSHKDYRLKLDDFIEVKIQAH | -3.76 |
| HMTAPQAQDYARVPDVLGLDMRESAQALRLDGFEMNAQGDGLAARQSPIGGSYAPEGTQVLVTFEM | 0.102 |
| HMAVQEDAGLAREDLPPEVQGLLQEREAARAAKDWGKSDALRRQLQDLGYAIKDTAQGMEIKRT | 0.425 |
| HMAHKYYSIMRPVSIGTFPDNGTILGIVNFDTRQMVESIGKMAWGYINYGKPLTEKQISDYELVAE | -0.451 |
| HMSESAGKAFDLLFYLAKAGETVSLARLSRETGMNKATALRYLNVLESKGVVERSKLGWTLGLSLFELGSK | -2.05 |
| HMSNETKSAILNFAEKHHDFNIDDLFESLSKSMDINRSSLLWHLFKLVNSNVLIRTGRGMYAKV | -1.89 |
| HMADDFISTLFSEGIIIDTEVKQFAERQGSPLQFVRHIASNLPEPRDIITMGEVRSVMREGA | -0.149 |
| HMAMDVKEVLLPGVGLRYEFDNSDGDRIGVIAKRSGDFEVVRYTAADRDAAQPMFRLTDEEADALAQILGA | 0.0786 |
| HMTKPTLMEVEIKGAIQNPGVYTLKRNSSISKLIKMSGPLLENADTSSISFTHILQDKDVVVIPEIK | -0.262 |
| HMEPVFSDPARQTLYQEVMELPAKYRVPLYLYYYEGYKVDEVGELLGLNASTVQTRLARARAKLKIQL | -0.627 |
| HMTTHEQVAILRRELNGLVGAWHHRTGQAHGVTHSKLRKELGGPPAAVASAAQLSARIEKIRQWAT | -0.635 |
| HMSHGNAALTPRQRLRLARLVVDDQWSVSAAAEFFRVSYPTAAKWARRYVELGPAGMADRSS | -1.42 |
| HMFELDELDLVILKNLANGLSKKQIRVKLKKMDLRPNSESAIDKRVSKLFDEFGAKNSTELVAKLIREGL | -2.55 |
| HMNDTPPELRAALDLLGLKWPLASVELRARYKDLAKQHHPDATGGDKQAEERLKDINRAYSLLKHRLAKQ | -0.07 |
| HMPKAKASARNDTRTRLLTIGTEVLSQKGFASTGVEEILSVAGVPKGAFYYYFESKAAFGLAVIENYE | 0.0027 |
| HMHKYQVGETVYYTSPTFGRAAATGSYIVVKLLPSEGDDYQYRIKSSGEAFERVAKESQLDR | -0.734 |
| HMINSFDYLQAIFTELMKSQSKMTNQDAAKRLFMQGKVAVSNRDREGLRMVLAQLVTLLPKEELGGLSTVS | 0.0921 |
| HMQARLPFSFAKRHGVILLAATGEGQSDVIYKSGFDIGALAEVRRFVAGEIALKEVDGPSFDRQLTLTYQN | -1.77 |
| HMQADEENPKYPVITDGVIQLEVLESIDKTEEWLVERLAKDGYNNVSEIFIAEYENGNLSIVT | 0.148 |
| HMKMPNGYGSITKLSGKRRKPWRVRKTAGWELDAKTQKLKQTYINIGYYETRADAMSALVSYNEDP | -0.898 |
| HMALSVRNRMSDLLRMLGDGEFHRFENLFSLEEGRHGIVVTFLAMLELAKEQLVEISQGESLAPIYLKSLA | -0.716 |
| HMGMEENLLKERKQILMDIMKSKEYQPMKVKELAMVLNVPKEDREELRYVLNELMNEGKIVESKKGKFSIA | 0.177 |

| Sequence | soluble fraction (log2) |
| --- | --- |
| HMFPQQGEIRQGVIASITPDQILVNVGTKSEGIISGKELEAISKSERDSLNVDQKIAVYILDPEDSNG | 0.259 |
| HMEDHMVVFGKGGRITRLPDKATVLEYLDAANFFASRSSVVKVNGKLASLDQTLRDGDSIEIVD | -0.183 |
| HMKKTVTDSVELLTFLKDIFTNTSTNKLRKMLTTGRVTVNNIVIHKAKHILVQNDVVEIGDK | -1.86 |
| HMQESTILPAQKSAISSLATSAGFSSENLKRYLLQNYGVDLKDLTRSQGAEVIKAFQSGNVSKP | 0.0882 |
| HMKKTFSKSSVMEAIFRDIPNITIPNAHEVYTLIKNISVMNKRKSITSEDIEKAYDALGLTP | -0.865 |
| HMHNSPSPVATTILRFLQPVRAFVGDTEDMRTFGPFLREDVAMVPASQAKNLIRSGHAVEINP | -0.0361 |
| HMAPAILTVQVKPDKIREIIGPGGKMIRMIQSETNTRVEVDDSGLVKIAAVSKEEGEAALKMVSDITME | 0.134 |
| HMAVSPEEQKKRIIELFRNRNEVSFKEIFDLPTKGHFVITLLAVLDLARQQIVIMEQLENEGIIKFTKGA | -0.0715 |
| HMGEIVVPDLIGKSLTEATRILSDSTLTVGKVNYQISSTLLPNTVLDQYPAPGNKLNSGNTVDLFITKE | -0.0436 |
| HMEQVLDEEIIKSAVQKVIKDNPSAVSDYKAGKKTAFQFLIGKAMAELQGKGHPGKISELLEKE | 0.439 |
| HMSKIRTFRVKTVAVDQAYQVLKDYSPIKISTESNAVIIDLDESKTPAEIAGYLEKNGIKVDNIEVIAESE | 0.179 |
| HMNGLDSVLRNWARQTLASGGENLLGDLTDHVTRLIISEALIMTGGNRTRAAELLGLSRPTLLAKMDKLNL | -1.45 |
| HMYVADVVGMGIKDALYILENQGLRVVFTGKGVVKNQSIAVGEKIIKGEKIVLML | -1.7 |
| HMKVIAEESYRILVDAIEKLPPQMKSIMQLALEGKSNPEIAETLNISGETVHSQKKIAYRKLRVYLKD | -1.17 |
| HMNEVETWSVQADGATGRIDKWLAEQNEWSRSQVQEWLKAGRVEVDGRVVKPNYKLSGTESIAVHIPEAV | -0.0928 |
| HMRDYDFGNLLYKLRIESGYTQKDIADMLGVTDKAVSKWENGIAKPTTNNIKLLSTIYNVSVEELLNG | -0.254 |
| HMKTMSLSSIEKAIYKTKYENEPTSQRLSRIESSVFGTNFSQDSESERIARISSAINAQKSAK | 0.125 |
| HMFIEHSKYKLSFKYNQLGKISNVINSNNGIIMDKHFDQNITLLAKLTENTFQEIIKHFPTIIIKRL | -3.19 |
| HMEERDMKGSISDLVERYADQLTDEQLEEIVLGIKNGLLEEDVKSYFFLPAEDMRRIRTALEQVR | 0.00866 |
| HMVSRVTTPGVVGKTWQETKQILKQADLTVGSLTRDGKDVTPADGDLVTAQNPSAGQAIVRGSSVDLTFDK | 0.31 |
| HMQRSVNYSELHEIKERVFDALYSSPMSMPDLLAWLKGDEEHTISVIRLMQDNGDIEMGEDGRLAVV | -0.275 |
| HMFQNPSQVVTTRVGELRAAIPTAQQGRITMGVAVVEDANSVRSVLISTSEPRGYLRPGVTLGPGETMV | 0.0203 |
| HMAVPTHVEFPVVGLQRSGITSLEQAIATVPGVSKAVVNVSDNRIFVDYDPTRSKVSDLLEVVRGAGFTP | -0.000584 |
| HMTEALEFTVEDLRMAGLVNSSFSRRRRELFSEKLGIGYGNGKSLLKKLNGYGITREEFNGAIQSLSD | -0.747 |
| HMSFGKKLRSLRQEKKLSQVELSKKLNVTSQALSQYELGKRIPDAEMIIRIADFFDVSVDYLLDRT | 0.215 |
| HMGAARVTPLYNLRLREGPSTATARLDVVPRGTTLEVRAWDETGDWAQVEYRGQIGWIAAWLAEVEGEAP | -0.136 |

| Sequence | soluble fraction (log2) |
| --- | --- |
| HMHTNNALWAIADDMRARKDDGEFDTYREGYKWAANNIVKEGIHITAIKLEKAYHKAKSEGKV | -0.0602 |
| HMTDDPGLSRAENRELQTLLLDRGHDIGQPDGLIGAKTRAAIRAEQSRLNMPVNGRGGQKLLRALRL | 0.372 |
| HMVDQVDKDRFLEALTQLGGSAGNVRLRETLQWEEEVYVIIKDALVKSGTILTGRGRGGSVLLASA | -1.12 |
| HMFDGTLSIYPNPSKGIFNLDLLNVKDGEYTITVDNLLGQEVYSEIRNVINSSSKTLDLSNLTKGV | -0.173 |
| HMFPELSEEAKVIVDALSKENDQQLNVLIANTGMAVGTMQAKLFELEMQGVVKPLAGSVYHLM | -0.0727 |
| HMASVVEQVQVSNDISLFRQQNSPYWQARFKVAGKWYTRTTKRTEQTQAAFRAAELRSEVQTKISQGIPLR | -0.866 |
| HMAISSADRIVAELRTWISGASPGTQLPSSRTLAARYGASPVTVQKALHTLAGMGLVEARPGAGTFVRRQS | -0.189 |
| HMEFFIIDHNGQQAGPFSFDQLVQKGISPETLVWKQGMADWNPAWKVEELKAVLEAVEANQSNQKAQ | 0.462 |
| HMEFPYISGVDVGTISNKEFARFETTKASDIVIALDKSGIPFSARFGDSEIVLTYDGSYKEEVEEIIAKV | 0.0138 |
| HMNMEPNWLKWAKQLAALAQNGLTYSDNPYEIERYEHIRRIAAEMMAEGFELDTKTILELFPREKG | -2.05 |
| HMGMNKEHFIIELKIYLKALNPKDQAIILAKYKALFDARVAEGETEEQVAKSLGKPRVIAEEILKEQGIE | -0.236 |
| HMAEQEELDAIRPDLDGQEIMDILGIKPGREVGAARNFLLELRLDEGPLGYDEAVSRLLTWWAERT | -0.13 |
| HMSNENIDQDELQAIIQKVLASNQDAVAKYKAGKTAVIGFLIGQVMRQLNKKIDVALAKKTLLVFLEK | -0.396 |
| HMRILGIDPGYAITGYSIIDYVGNKFKLIDSGAVLTKAGVSFPLRLTKIYDDLSMIIDEYKPDA | -0.207 |
| HMSWEELLEHLEKAAERGEEVRIAGVTLHDEEDFKRALRWLKEWL | -1.93 |
| HMYTVRDGDTVFGILNRFGVSLDELLSLNPELSNGLKAGMVLKIK | -0.491 |
| HMEEDPILVAQRFLNIFRQLHIFDQQRREEFNSMILALPPEIRGTFGVLPGGSVLQEYVDELEISKGMA | -0.512 |
| HMEPAPELTPREQQVLARIALGMTDKAIAEELGVSHQTVRNHVARIYQKIKVHSRSQAVVWAREKGI | -0.192 |
| HMSVDAMDEANERKMAKTFNMIVLGGLLKIRPIVSIESVIKALRKTLPERHHHLIPMNEEAIHIGMDII | 0.0597 |
| HMSKNYYEILGVTPDVELSQLKAVYRRLVRKYHPDINPDGELIFKDITEAYEVLSDEKQRKQYDMINGF | -0.0246 |
| HMLPRNKRIEIALTYIYGLGRHAATVVLKHANISPDKRTDDLDENDVRKLRDAIDANFRVEGDLRR | -0.0528 |
| HMASQEESVATYIQDYYRNPKTGESMVSDDMVEEFYKTHPEWEDQADGSKEGMEAVLDNFNEFFEINYG | 0.0827 |
| HMNSTVKVPNVVGMSVPQAKALLEQNHLLVQGIREVSTDKAPAGIVINQLPYSDAEVKEERHIYLTVSKGK | ≥ 0.62 |
| HMSEIVEEQNTKLKQAVSKLSKRQQEVLYLKFEEGLDYEQISKIMDLKYQSVRNLVSTAIIKIKEH | -2.16 |

From the domain aggregation screens of Martell et al. (2025)
